Test [1] addresses DR4-Ig (death receptor 4 / TRAIL-R1, Ig fusion protein) (UniProt O00220).
For test [2] the target is unchanged. This is another data set of the same source.
The target in test [3] is rhTRAIL-C3 (TRAIL G131R/N199R/K201H mutant) (human) (UniProt P50591). In words: SEC. On the technique in general: Size exclusion chromatography separates by hydrodynamic size, large species first.

Sequence of UniProt O00220 (O00220 24-239): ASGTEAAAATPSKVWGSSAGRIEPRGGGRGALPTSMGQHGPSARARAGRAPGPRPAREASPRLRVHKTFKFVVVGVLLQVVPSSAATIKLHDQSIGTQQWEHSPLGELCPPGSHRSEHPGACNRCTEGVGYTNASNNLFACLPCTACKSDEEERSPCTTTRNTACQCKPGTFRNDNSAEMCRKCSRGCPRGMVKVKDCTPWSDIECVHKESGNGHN

For orientation: stoichiometry N means a count of units in the complex or per binding partner. For “rhTRAIL-C3 (TRAIL G131R/N199R/K201H mutant) (from UniProt P50591 1-281) (ligand)”, in test [1], the ED50 of apoptosis induction (annexin V) in DR4-responsive EM-2 cells, 24 hrs turned out to be 3.78 ng/mL. In addition, the level of cell death in HL-60 cells (100 ng/ml, TMRE, 12 hrs) in test [2] was determined as 67%. Besides, in test [3], the stoichiometry N is 3.
